# Target: JZif1 (artificial (human Zif268/EGR1 derived), UniProt P18146 SEQ:1-543)
# Test: cell_activity; luciferase induction in HeLa, pXP-Luc (about 318 bp human utrophin promoter A); also active in C2C7 (FIG. 8)
# Conditions: tags: none
# Procedure: To investigate the ability of JZif1, JZif2, Vp16-CJ7-UtroUp, Vp16-Bagly and Vp16-Jazz to upregulate (i.e., increase) expression from the utrophin promoter “A”, their ability to drive expression of a luciferase reporter gene placed downstream of a utrophin promoter “A” fragment was tested.
# To test the ability of these artificial transcription factors to increase expression from the utrophin promoter “A” in human cells, HeLa cells were co-transfected with a plasmid carrying JZif1, JZif2, Vp16-CJ7-UtroUp, Vp16-Bagly or Vp16-Jazz under control of the cytomegalovirus (CMV) promoter together with the luciferase reporter construct plasmid pXP-Luc (pXP). JZif1, JZif2, Vp16-CJ7-UtroUp, Vp16-Bagly and Vp16-Jazz were each able to increase luciferase expression relative to controls (FIG. 7). […] By comparison, no increase in luciferase expression was detected when the pXP plasmid was co-transfected with a plasmid carrying the zinc finger domain of Jazz without a transcriptional activation domain, with a plasmid carrying the genomically-encoded human transcription factor Zif268's transcription activation domain without its zinc finger motifs, or with a plasmid carrying the transcriptional activation domain of Vp16 without a zinc finger DNA binding domain, which served as controls (FIG. 7). […]
# JZif1, sequence (P18146 other isoform, or with tags, fused parts or gaps): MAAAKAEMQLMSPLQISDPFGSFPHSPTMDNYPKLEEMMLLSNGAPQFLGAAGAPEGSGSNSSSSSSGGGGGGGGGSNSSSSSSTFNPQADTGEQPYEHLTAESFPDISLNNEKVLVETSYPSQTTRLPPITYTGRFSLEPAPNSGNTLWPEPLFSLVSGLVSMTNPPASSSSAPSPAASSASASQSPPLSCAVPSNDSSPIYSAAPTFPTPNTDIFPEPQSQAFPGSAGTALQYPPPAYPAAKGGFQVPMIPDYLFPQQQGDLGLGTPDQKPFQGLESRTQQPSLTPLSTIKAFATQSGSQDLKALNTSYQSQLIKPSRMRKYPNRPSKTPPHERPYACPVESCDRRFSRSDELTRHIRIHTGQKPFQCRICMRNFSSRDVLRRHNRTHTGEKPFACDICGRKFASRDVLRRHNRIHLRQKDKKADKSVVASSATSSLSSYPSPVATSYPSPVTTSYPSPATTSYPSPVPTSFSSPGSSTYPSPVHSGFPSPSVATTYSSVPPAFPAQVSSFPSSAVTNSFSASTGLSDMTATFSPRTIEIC
binder,measurement,value
Jazz/JZif1 target in human utrophin promoter A (dsDNA) DNA 1: GCTGCTGCG DNA 2: CGCAGCAGC,activity,> 20 fold
